Measurements from patent EP4667489A1 (Kyinno Biotechnology Co., Ltd., dated 2025).

What was measured:
[1] = target: T1, human PDL1 expressed on 293T-PDL1 cells (human, UniProt Q9NZQ7 19-290); experiment: flow cytometry on 293T-PDL1 cells
T1 construct: whole, on cells; in the signalling assays PDL1 stood on 293T OS8-hPDL1 cells (Kyinno KC-1148); also called PDL1-expressing cells; 293T OS8-hPDL1 cells

[2] = target: T2, PDL1-mFc (fusion protein of the human PDL1 extracellular domain and mouse Fc; Kyinno, Cat No.: KP-1008) (human; mouse, UniProt Q9NZQ7 19-238); experiment: flow cytometry, blocking of PDL1-mFc binding to 293T-PD1 cells
T2 construct: extracellular domain; bought; also called human PDL1-mFc; not shown: mouse Fc
T2 sequence (Q9NZQ7 19-238): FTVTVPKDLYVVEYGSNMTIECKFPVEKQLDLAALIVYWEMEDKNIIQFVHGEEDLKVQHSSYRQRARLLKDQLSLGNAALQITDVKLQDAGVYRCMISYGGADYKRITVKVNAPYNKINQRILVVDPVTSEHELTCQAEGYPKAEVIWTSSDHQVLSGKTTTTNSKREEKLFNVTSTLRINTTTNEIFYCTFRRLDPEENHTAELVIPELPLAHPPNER

[3] = target: T3, PDL1-His (Kyinno, Cat No.: KP-1022) (UniProt Q9NZQ7 19-238, limits assumed); experiment: BLI (ForteBio Octet), PDL1-His as mobile phase
T3 construct: not shown: His tag
T3 sequence (Q9NZQ7 19-238 limits assumed): as the sequence (Q9NZQ7 19-238) above

[4] = target: T4, human EGFR expressed on CT26-EGFR cells (human, UniProt P00533 25-1210); experiment: flow cytometry, blocking of EGF-mFc binding to CT26-EGFR cells
T4 construct: whole, on cells; CT26 cells stably expressing human EGFR (Kyinno KC-1451); also called EGFR-expressing cells; 293T-NFAT-Luc2-EGFR cells

[5] = target: T4, human EGFR expressed on CT26-EGFR cells; experiment: cell-based or functional assay
[6] = target: T5, EGFR-His (Kyinno, Cat No.: KP-1150) (UniProt P00533 25-645, limits assumed); experiment: BLI (ForteBio Octet), EGFR-His as mobile phase
T5 construct: bought; not shown: His tag

[7] = target: T4, human EGFR expressed on CT26-EGFR cells; experiment: flow cytometry on CT26-EGFR cells
[8] = target: T1, human PDL1 expressed on 293T-PDL1 cells; experiment: cell-based or functional assay
[9] = target: T6, PD1-mFc (fusion protein of the human PD1 extracellular domain and mouse IgG2a-Fc) (human; mouse, UniProt Q15116 25-170); experiment: flow cytometry, blocking of PD1-mFc binding to 293T-PDL1 cells
T6 construct: extracellular domain; not shown: mouse IgG2a-Fc, Genbank AAH31470.1
T6 sequence (Q15116 25-170): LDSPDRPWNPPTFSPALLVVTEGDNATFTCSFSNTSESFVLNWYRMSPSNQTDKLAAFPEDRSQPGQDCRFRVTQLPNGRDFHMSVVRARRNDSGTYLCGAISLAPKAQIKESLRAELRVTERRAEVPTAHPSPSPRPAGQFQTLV

[10] = target: T7, human PD1 expressed on 293T-PD1 cells (human, UniProt Q15116 25-288); experiment: flow cytometry on 293T-PD1 cells
T7 construct: whole, on cells; 293T cells stably expressing human PD1 (Kyinno KC-0204); also called PD1-expressing cells; Jurkat NFAT-PD1-luc cells
T7 sequence (Q15116 25-288): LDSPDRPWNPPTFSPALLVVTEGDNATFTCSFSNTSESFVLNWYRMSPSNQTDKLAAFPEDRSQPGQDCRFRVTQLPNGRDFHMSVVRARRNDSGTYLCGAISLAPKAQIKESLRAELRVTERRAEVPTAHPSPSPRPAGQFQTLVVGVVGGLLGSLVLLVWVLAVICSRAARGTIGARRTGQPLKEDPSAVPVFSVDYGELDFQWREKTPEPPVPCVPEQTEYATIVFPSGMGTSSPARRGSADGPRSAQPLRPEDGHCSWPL

[11] = target: T8, human LAG3 expressed on 293T-LAG3 cells (human, UniProt P18627 23-525); experiment: flow cytometry on 293T-LAG3 cells
T8 construct: whole, on cells; 293T cells stably expressing human LAG3 (Kyinno KC-0214); also called LAG3-expressing cells
T8 sequence (looked up): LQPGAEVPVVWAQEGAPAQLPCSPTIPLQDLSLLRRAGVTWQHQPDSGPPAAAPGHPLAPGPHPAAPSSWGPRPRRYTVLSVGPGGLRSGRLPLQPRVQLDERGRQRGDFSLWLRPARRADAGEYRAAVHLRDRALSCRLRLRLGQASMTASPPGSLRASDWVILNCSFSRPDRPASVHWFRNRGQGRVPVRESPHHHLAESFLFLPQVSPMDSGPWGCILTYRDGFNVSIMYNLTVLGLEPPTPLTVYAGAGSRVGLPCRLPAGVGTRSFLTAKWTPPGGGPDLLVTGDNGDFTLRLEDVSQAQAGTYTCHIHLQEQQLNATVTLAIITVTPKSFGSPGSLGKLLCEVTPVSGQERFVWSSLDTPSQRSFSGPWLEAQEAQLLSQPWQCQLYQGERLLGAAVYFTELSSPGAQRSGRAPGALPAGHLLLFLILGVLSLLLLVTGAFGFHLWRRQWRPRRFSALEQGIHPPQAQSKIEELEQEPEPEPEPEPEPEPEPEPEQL

[12] = target: T9, LAG3-mFc (fusion protein of the human LAG3 extracellular domain and mouse IgG2a-Fc) (human; mouse, UniProt P18627 23-450); experiment: flow cytometry, blocking of LAG3-mFc binding to Daudi cells
T9 construct: extracellular domain; also called human LAG3-mFc; not shown: mouse IgG2a-Fc, Genbank AAH31470.1
T9 sequence (looked up): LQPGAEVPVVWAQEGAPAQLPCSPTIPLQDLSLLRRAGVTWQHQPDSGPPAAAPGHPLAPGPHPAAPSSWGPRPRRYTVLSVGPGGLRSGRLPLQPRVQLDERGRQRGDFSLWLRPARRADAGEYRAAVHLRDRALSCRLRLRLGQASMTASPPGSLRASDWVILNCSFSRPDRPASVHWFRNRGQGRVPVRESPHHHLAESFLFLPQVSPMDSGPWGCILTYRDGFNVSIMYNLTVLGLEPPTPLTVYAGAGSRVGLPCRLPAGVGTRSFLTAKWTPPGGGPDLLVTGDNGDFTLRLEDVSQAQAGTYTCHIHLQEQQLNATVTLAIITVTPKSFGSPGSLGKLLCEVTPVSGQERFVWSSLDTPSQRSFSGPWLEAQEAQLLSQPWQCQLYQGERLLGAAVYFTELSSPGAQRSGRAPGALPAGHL

[13] = target: T10, LAG3-His (ACRO, Cat No.: LA3-H5222) (UniProt P18627 23-450); experiment: BLI (ForteBio Octet), LAG3-His as mobile phase
T10 construct: bought protein; not shown: His tag
T10 sequence (looked up): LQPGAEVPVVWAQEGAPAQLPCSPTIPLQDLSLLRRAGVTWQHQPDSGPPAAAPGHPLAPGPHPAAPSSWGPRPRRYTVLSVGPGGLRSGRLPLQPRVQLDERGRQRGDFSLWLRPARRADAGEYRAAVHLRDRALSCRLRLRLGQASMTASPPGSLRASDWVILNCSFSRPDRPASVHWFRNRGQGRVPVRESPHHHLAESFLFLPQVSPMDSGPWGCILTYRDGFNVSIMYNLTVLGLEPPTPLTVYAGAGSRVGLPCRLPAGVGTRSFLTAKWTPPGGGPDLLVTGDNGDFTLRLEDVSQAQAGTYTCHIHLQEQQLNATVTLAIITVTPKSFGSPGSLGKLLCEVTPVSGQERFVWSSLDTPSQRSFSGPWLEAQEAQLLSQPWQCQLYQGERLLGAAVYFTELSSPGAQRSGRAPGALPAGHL

[14] = target: T11, PD1-His (Kyinno, Cat No.: KP-1023) (UniProt Q15116 25-167, limits assumed); experiment: BLI (ForteBio Octet), PD1-His as mobile phase
T11 construct: bought protein; not shown: His tag
T11 sequence (Q15116 25-167 limits assumed): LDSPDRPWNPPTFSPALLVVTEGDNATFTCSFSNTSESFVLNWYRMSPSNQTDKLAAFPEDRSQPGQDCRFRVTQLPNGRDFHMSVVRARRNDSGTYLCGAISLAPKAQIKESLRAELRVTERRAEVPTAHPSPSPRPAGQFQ

T1 sequence (Q9NZQ7 19-290): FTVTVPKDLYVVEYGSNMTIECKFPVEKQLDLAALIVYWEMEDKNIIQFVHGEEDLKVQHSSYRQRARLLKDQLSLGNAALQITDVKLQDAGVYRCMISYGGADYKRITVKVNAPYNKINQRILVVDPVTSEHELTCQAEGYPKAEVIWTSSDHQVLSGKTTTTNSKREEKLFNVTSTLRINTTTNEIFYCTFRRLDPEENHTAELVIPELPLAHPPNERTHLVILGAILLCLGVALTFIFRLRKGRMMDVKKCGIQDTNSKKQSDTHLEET

B1: KA-2072 H22A12×58E3-CLC01 (bispecific antibody, human IgG1, kappa)
heavy 1: not shown
heavy 2: not shown
light: DIQITQSPSSLSASVGDRVTITCSATSGVSYMHWYQQKPGKAPKRLIYDTSRLASGVPSRFSGSGSGTDYTLTISSLQPEDFATYYCQQWSSNPPYTFGQGTRLEIKRTVAAPSVFIFPPSDEQLKSGTASVVCLLNNFYPREAKVQWKVDNALQSGNSQESVTEQDSKDSTYSLSSTLTLSKADYEKHKVYACEVTHQGLSSPVTKSFNRGEC
notes: EGFR×PDL1 bispecific; first heavy chain targets EGFR (hIgG1 Knob), second targets PDL1 (hIgG1 Hole); common light chain 1
- EC50 [1]: 0.422 µg/mL
- IC50 [2]: 0.122 µg/mL
- Kd [3]: 0.464 nM
- koff [3]: 0.000426 s⁻¹
- kon [3]: 918000 M⁻¹ s⁻¹
- IC50 [4]: 0.0155 µg/mL
- IC50, luciferase reporter (procedure of Example 34) [5]: 1.01 nM
- Kd [6]: 4.21 nM
- koff [6]: 0.00295 s⁻¹
- kon [6]: 701000 M⁻¹ s⁻¹
- EC50 [7]: 0.0393 µg/mL
- IC50, luciferase reporter (procedure of Example 30) [8]: 0.372 nM

B2: KA-1773 M107D12-10CLC1-hIgG4M (antibody, V domains shown)
VH: QVQLKESGGGLVKPGGSLKLSCAASGFTFSDYGMHWVRQAPEKGLEWVAYISSGSYTIYYADTVRDRFTISRDSAKNTLFLQMTSLRSEDTAMYYCVRRGPGYFGSTALDYWGQGTTLTVSS
VL: QIVLTQSPAIMSASPGEKVTMTCSATSGVSYMHWYQQKSGTSPKRWIYDTSRLASGVPARFSGSGSGTSYSLTISSMEAEDAATYYCQQWSSNPPYTFGSGTKLEIKR
notes: anti-PD1 chimeric antibody, human IgG4 (S228P) / kappa
- IC50 [9]: 0.256 µg/mL
- EC50 [10]: 0.265 µg/mL

B3: KA-1728 M28G2-7CLC1-hIgG4M (antibody, V domains shown)
VH: DVKLQESGPGLVKPSQSLSLTCSVTGYSFTSGYYWNWIRLFPGNKLEWMGYVSYFGTNNYNPSLKNRFSITRDTSKNQFFLKLNSVSTEDTATYYCARGEEWDWSFDVWGTGTTVTVSS
VL: QIVLTQSPAIMSASPGEKVTMTCSATSGVSYMHWYQQKSGTSPKRWIYDTSRLASGVPARFSGSGSGTSYSLTISSMEAEDAATYYCQQWSSNPPYTFGSGTKLEIKR
- EC50 [11]: 0.118 µg/mL
- IC50 [12]: 0.805 µg/mL

B4: KA-1733 M28G2-7CLC2-hIgG4M (antibody, V domains shown)
VH: DVKLQESGPGLVKPSQSLSLTCSVTGYSFTSGYYWNWIRLFPGNKLEWMGYVSYFGTNNYNPSLKNRFSITRDTSKNQFFLKLNSVSTEDTATYYCARGEEWDWSFDVWGTGTTVTVSS
VL: QIVLTQSPAIMSASPGEKVTMTCSASSSVSYMHWYQQKSGTSPKRWIYDTSKLASGVPARFSGSGSGTSYSLTISSMEAEDAATYYCQQWSSNPPYTFGSGTKLEIKR
- EC50 [11]: 0.0649 µg/mL
- IC50 [12]: 0.563 µg/mL

B5: KA-1774 M107D12-10CLC2-hIgG4M (antibody, V domains shown)
VH: QVQLKESGGGLVKPGGSLKLSCAASGFTFSDYGMHWVRQAPEKGLEWVAYISSGSYTIYYADTVRDRFTISRDSAKNTLFLQMTSLRSEDTAMYYCVRRGPGYFGSTALDYWGQGTTLTVSS
VL: QIVLTQSPAIMSASPGEKVTMTCSASSSVSYMHWYQQKSGTSPKRWIYDTSKLASGVPARFSGSGSGTSYSLTISSMEAEDAATYYCQQWSSNPPYTFGSGTKLEIKR
- IC50 [9]: 0.218 µg/mL
- EC50 [10]: 0.272 µg/mL

B6: KA-1782 H28G2-7V4-hIgG4M (antibody, V domains shown)
VH: QVQLQESGPGLVKPSETLSLTCTVSGYSFTSGYYWNWIRQPPGKGLEWIGYVSYFGTANYNPALKNRVTISRDTSKNQFSLKLSSVTAADTAVYYCARGEEWDWSFDVWGQGTTVTVSS
VL: DIQITQSPSSLSASVGDRVTITCSATSGVSYMHWYQQKPGKAPKRLIYDTSRLASGVPSRFSGSGSGTDYTLTISSLQPEDFATYYCQQWSSNPPYTFGQGTRLEIKR
notes: anti-LAG3 humanized antibody, human IgG4 (S228P) / kappa
- Kd [13]: 0.174 nM
- koff [13]: 0.000153 s⁻¹
- kon [13]: 881000 M⁻¹ s⁻¹
- EC50 [11]: 0.0674 µg/mL
- IC50 [12]: 0.476 µg/mL

B7: KA-1807 H107D12-10V4-hIgG4M (antibody, V domains shown)
VH: QVQLVESGGGLVKPGGSLRLSCAASGFTFSDYGMHWIRQAPGKGLEWVAYISSGSYTIYYADTVRDRFTISRDSAKNSLYLQMNSLRAEDTAVYYCVRRGPGYFGSTALDYWGQGTTVTVSS
VL: DIQITQSPSSLSASVGDRVTITCSATSGVSYMHWYQQKPGKAPKRLIYDTSRLASGVPSRFSGSGSGTDYTLTISSLQPEDFATYYCQQWSSNPPYTFGQGTRLEIKR
notes: anti-PD1 humanized antibody, human IgG4 (S228P) / kappa; also called KA-1807 H107D12-10V4-hlgG4M
- IC50 [9]: 0.158 µg/mL
- Kd [14]: 6.96 nM
- koff [14]: 0.00143 s⁻¹
- kon [14]: 205000 M⁻¹ s⁻¹
- EC50 [10]: 0.193 µg/mL

B8: KA-2073 H22A12×58E3-CLC02 (bispecific antibody, human IgG1, kappa)
heavy 1: not shown
heavy 2: not shown
light: DIQLTQSPSTLSASVGDRVTITCSATSSIGYMHWYQQKPGTSPKRWIYDTSKLASGVPSRFSGSGSGTEYTLTISSLQPDDFATYYCQLWSSDPPYTFGQGTRLEIKRTVAAPSVFIFPPSDEQLKSGTASVVCLLNNFYPREAKVQWKVDNALQSGNSQESVTEQDSKDSTYSLSSTLTLSKADYEKHKVYACEVTHQGLSSPVTKSFNRGEC
notes: EGFR×PDL1 bispecific; first heavy chain targets EGFR (hIgG1 Knob), second targets PDL1 (hIgG1 Hole); common light chain 3
- EC50 [1]: 0.521 µg/mL
- IC50 [2]: 0.129 µg/mL
- Kd [3]: 0.602 nM
- koff [3]: 0.00126 s⁻¹
- kon [3]: 2.09e+06 M⁻¹ s⁻¹
- IC50 [4]: 0.0123 µg/mL
- IC50, luciferase reporter (procedure of Example 34) [5]: 1.05 nM
- Kd [6]: 5.64 nM
- koff [6]: 0.00449 s⁻¹
- kon [6]: 796000 M⁻¹ s⁻¹
- EC50 [7]: 0.0358 µg/mL
- IC50, luciferase reporter (procedure of Example 30) [8]: 0.429 nM
